Consider 4 variants from IntAct's records for PubMed 31515488.

B1: Beta-taxilin (Homo sapiens), Q8N3L3 (parent)
chain: MEANHSEQLSAERQSTPPGDSSSLPSHNGLEKEDGQDSPTPVQPPEKEASVHPDISEELNRQLEDIINTYGSAASTAGKEGSARASEQPENAESPDNEDGDCEETTEEAGREPVASGEPPTVKEPVSNKEQKLEKKILKGLGKEANLLMQNLNKLQTPEEKFDFLFKKYAELLDEHRTEQKKLKLLQKKQVQIQKEKDQLQGEHSRAILARSKLESLCRELQRHNKTLKEEALQRAREEEEKRKEITSHFQSTLTDIQGQIEQQSERNMKLCQENTELAEKLKSIIDQYELREEHLDKIFKHRELQQKLVDAKLEQAQEMMKEAEERHKREKEYLLNQAAEWKLQAKVLKEQETVLQAQLTLYSGRFEEFQSTLTKSNEVFATFKQEMDKTTKKMKKLEKDTATWKARFENCNKALLDMIEEKALRAKEYECFVMKIGRLENLCRALQEERNELHKKIRDAEISEKDDQSQHNSDEEPESNVSVDQEIDAEEVNSVQTAVKNLATAFMIIHHPESTPHQSKETQPEIGSSQESADAALKEPEQPPLIPSRDSESPLPPLTPQAEAEGGSDAEPPSKASNSPAGLGAETQCEGLPVGAQADQASWKPEAEASGQAPQAPTEASLQKMEADVPAPACAAEEHVAAMVPACEPSRQPPRAAAEELPVGASAGPQPRNVADTNLEGVD
B2: THAP domain-containing protein 7 (Homo sapiens), Q9BT49 (parent)
chain: MPRHCSAAGCCTRDTRETRNRGISFHRLPKKDNPRRGLWLANCQRLDPSGQGLWDPASEYIYFCSKHFEEDCFELVGISGYHRLKEGAVPTIFESFSKLRRTTKTKGHSYPPGPAEVSRLRRCRKRCSEGRGPTTPFSPPPPADVTCFPVEEASAPATLPASPAGRLEPGLSSPFSDLLGPLGAQADEAGCSAQPSPERQPSPLEPRPVSPSAYMLRLPPPAGAYIQNEHSYQVGSALLWKRRAEAALDALDKAQRQLQACKRREQRLRLRLTKLQQERAREKRAQADARQTLKEHVQDFAMQLSSSMA
partner: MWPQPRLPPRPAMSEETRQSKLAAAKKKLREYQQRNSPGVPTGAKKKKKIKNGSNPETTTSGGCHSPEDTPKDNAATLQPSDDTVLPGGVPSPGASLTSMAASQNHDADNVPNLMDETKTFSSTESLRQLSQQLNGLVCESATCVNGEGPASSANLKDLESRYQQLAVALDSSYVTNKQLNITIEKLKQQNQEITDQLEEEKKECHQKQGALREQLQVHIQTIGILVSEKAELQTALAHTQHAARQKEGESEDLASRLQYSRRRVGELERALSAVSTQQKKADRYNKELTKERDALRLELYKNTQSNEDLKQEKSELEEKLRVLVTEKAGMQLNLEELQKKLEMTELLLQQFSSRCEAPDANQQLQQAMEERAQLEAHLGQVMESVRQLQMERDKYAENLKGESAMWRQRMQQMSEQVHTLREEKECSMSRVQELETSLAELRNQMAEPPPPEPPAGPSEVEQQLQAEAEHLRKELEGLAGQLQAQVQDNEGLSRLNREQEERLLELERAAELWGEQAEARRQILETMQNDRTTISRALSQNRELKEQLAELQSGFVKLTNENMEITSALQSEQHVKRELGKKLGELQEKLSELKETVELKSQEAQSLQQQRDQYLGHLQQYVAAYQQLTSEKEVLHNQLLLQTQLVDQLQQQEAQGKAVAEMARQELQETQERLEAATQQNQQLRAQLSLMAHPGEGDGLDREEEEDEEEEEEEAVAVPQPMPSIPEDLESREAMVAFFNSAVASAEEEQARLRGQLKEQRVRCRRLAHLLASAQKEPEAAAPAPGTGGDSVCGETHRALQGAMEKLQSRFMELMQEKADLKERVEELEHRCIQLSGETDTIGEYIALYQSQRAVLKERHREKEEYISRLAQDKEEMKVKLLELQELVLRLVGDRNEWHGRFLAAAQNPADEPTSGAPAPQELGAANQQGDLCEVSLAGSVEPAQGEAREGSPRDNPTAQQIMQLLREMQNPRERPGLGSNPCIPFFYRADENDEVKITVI
B3: IQ motif and ubiquitin-like domain-containing protein (Homo sapiens), Q8NA54 (parent)
chain: MSNQQEKYEAQNIVNSTEESDDAFDTVTIPVPSEEPQESDQTEEHESGIEQFSESHAIHVEEQSDQSFSSLEPDNEQLMEEVISPRQVSYTPQHHEKQYAMQRPNDDSLAFLDKIKSVKESLQESVEDSLATVKVVLIPVGQEIVIPFKVDTILKYLKDHFSHLLGIPHSVLQIRYSGKILKNNETLVQHGVKPQEIVQVEIFSTNPDLYPVRRIDGLTDVSQIITVTVQTGLDQYQQVPVEIVKSDFHKPFLGGFRHKVTGVEYHNAGTQTVPKRIPERLSIFCRDTQTVFQKKNLQQTTNTTSTQMTNIGVYVSNMTDKLVTPGKYFSAAEYHAQRLKAVIVIQTYYRQWHAKIFVENLRRQKSLRLEWETQQELRKIREKEEWIKLDYHRRHNPKTNEDFEFLYNALEFWRQEELTRINQSFTGAERKAALCELLEKETQIIASIGRHRYIAYMANQEAAIQAFLDKCSAPKIWRTPNGKTIEMDTQFTIRARELQNIYKCIMLKNISQDERLDVLLTLKHTVKEHECKLTQEILELIDREVDLMMRGVKHHNLEGLRKRIATLFFHYIKTPLFNPEVAKYLKVPQDPLKFYKKIYFCHSCQLYLPSTEFSVSSTSRRIYRCRNCINLQNEAQKRESFLKYKCLLQQLYYTEADYEDDSKIAFLMQLQDIQYLTENIWASQSVLSACDNLSDLVMVRWNKSLEWSPWNCILLTKDEAAAHLKLTSIEEGYERSFIHKIKHKHILAKNYFSQVPVLASFILDDGEIDEIRWKYHSDTTPKIIESQRPPH
partner: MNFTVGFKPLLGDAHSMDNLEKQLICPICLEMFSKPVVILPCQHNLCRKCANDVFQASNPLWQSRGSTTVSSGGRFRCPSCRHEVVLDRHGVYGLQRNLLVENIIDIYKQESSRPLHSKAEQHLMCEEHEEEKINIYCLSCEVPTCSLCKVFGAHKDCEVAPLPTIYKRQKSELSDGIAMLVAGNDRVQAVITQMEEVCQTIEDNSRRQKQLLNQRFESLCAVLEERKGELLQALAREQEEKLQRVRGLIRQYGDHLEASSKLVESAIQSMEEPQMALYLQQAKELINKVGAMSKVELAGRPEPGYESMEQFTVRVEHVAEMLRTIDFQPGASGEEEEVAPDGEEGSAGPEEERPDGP

In the first assay the parent is B1. Conditions: with exoc5_human EXOC5, O00471.
Chain of exoc5_human EXOC5, O00471 (O00471 whole entry): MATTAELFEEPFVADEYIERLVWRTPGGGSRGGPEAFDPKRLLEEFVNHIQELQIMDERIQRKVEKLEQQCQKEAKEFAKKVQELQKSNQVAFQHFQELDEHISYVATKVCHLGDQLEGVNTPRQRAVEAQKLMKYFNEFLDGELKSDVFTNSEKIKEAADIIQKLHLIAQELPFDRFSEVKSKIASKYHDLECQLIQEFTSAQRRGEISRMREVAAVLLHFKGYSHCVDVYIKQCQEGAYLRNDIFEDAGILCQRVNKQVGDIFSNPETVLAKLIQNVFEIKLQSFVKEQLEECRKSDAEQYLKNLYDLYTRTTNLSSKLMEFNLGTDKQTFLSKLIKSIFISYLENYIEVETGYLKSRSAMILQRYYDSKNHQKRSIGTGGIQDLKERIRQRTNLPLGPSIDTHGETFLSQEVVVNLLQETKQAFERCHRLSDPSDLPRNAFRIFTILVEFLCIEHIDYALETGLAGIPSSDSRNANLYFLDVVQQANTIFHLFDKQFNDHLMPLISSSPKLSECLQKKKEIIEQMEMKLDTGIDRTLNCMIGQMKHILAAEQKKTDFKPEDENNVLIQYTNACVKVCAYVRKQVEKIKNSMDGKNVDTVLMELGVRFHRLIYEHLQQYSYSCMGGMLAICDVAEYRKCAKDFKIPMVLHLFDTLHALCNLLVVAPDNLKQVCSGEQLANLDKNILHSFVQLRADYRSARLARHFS
As for I527T, the “effect of a mutation on the interaction” value is given as “with no effect”.

Another assay covers variants of B1. Conditions: with mbip1_human MBIP.
Take I527T: the “effect of a mutation on the interaction” value is “with no effect”.

Variants of B2 are the subject of another assay. Conditions: with goga2_human GOLGA2, Q08379.
Consider E168D, for which the “effect of a mutation on the interaction” value is “with no effect”.

In another assay the parent is B3. Conditions: with tri54_human TRIM54, Q9BYV2.
I501F: the “effect of a mutation on the interaction” value was “disrupting interaction strength”.
On the same count and under the same terms, the entry for V126M is “with no effect”.
